These results are taken from US20220033515A1 (Genentech, published 2022).

Changes are numbered by the printed parent chain. Values joined by “and” are separate entries in the source; they are usually repeats but may differ in a detail not shown here. Identical values can stand only once.

Test [1] addresses T1, human death receptor 5 (hDR5) (human, UniProt O14763 56-210).
T1 construct: also called DR5 long; hDR5-1f
Kind of test: equilibrium KD; method and format (Fab or IgG) not given.

The target of test [2] is T2, HER2 extracellular domain (Her2-ECD) (human, UniProt P04626 23-652).
T2 construct: extracellular domain; also called hHER2 extracellular domain (ECD)
The test is described as follows: competition ELISA of phage-displayed Fab.

Test [3] has as its target T2, HER2 extracellular domain (Her2-ECD). The test is described as follows: Biacore SPR. In general terms: Surface plasmon resonance follows binding to a sensor surface in real time, without labels.
Test [4] shares this target. Kind of test: equilibrium KD; method and format (Fab or IgG) not given; HER2, second number of the cell.
Test [5] concerns the target T3, hVEGF109 (human, UniProt P15692 214-315).
T3 construct: range 8-109; also called VEGF (8-109)
T3 sequence (looked up): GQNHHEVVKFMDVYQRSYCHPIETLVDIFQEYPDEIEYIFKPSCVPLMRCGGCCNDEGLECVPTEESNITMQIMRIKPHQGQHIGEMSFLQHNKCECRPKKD
Kind of test: Biacore SPR.

Test [6] concerns the target T3, hVEGF109. Kind of test: ELISA on immobilised target. (In general: In an ELISA, binding on a coated surface is turned into a signal by an enzyme label.)
For test [7], the target named is T4, hVEGF165 (human, UniProt P15692-4 27-191).
T4 construct: also called human VEGF165
Kind of test: ELISA on immobilised target.

Test [8] concerns the target T5, murine VEGF (mVEGF) (murine, UniProt Q00731-2 27-190).
T5 sequence (looked up): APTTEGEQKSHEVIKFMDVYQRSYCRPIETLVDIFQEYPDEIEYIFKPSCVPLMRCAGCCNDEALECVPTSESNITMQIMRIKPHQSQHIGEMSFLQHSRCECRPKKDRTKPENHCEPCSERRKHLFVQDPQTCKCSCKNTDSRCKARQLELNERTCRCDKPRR
Kind of test: ELISA on immobilised target.

Test [9] addresses T6, human vascular endothelial growth factor (hVEGF) (human, UniProt P15692-4 27-191).
T6 construct: also called hVEGF-A; human vascular endothelial growth factor A
Kind of test: ELISA on immobilised protein.

Test [10] deals with T7, epidermal growth factor receptor extracellular domain (hEGFR) (human, UniProt P00533 25-645).
T7 construct: extracellular domain
The test is described as follows: ELISA on immobilised protein.

For test [11], the target named is bovine serum albumin (BSA) (bovine, UniProt P02769 25-607). The test is described as follows: ELISA on immobilised protein.
In test [12] the target is T8, hVEGF-D (human, UniProt O43915 93-201).
T8 sequence (looked up): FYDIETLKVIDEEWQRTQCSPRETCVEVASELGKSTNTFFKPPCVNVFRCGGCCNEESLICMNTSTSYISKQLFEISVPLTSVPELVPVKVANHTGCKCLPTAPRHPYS
The test is described as follows: ELISA on immobilised protein.

In test [13] the target is T9, hVEGF-C (human, UniProt P49767 103-227).
T9 sequence (looked up): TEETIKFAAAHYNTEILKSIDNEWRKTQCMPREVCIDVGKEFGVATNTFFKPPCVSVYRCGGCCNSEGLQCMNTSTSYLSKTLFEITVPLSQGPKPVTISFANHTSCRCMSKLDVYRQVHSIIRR
The test is described as follows: ELISA on immobilised protein.

In test [14] the target is T2, HER2 extracellular domain (Her2-ECD). Kind of test: single-spot competitive phage ELISA.
The target of test [15] is T6, human vascular endothelial growth …. Kind of test: competitive phage ELISA.

B1: 4-1 (antibody, V domains shown)
VH: not shown
VL: DIQMTQSPSSLSASVGDRVTITCRASQDIWNRRALAWYQQKPGKAPKLLIYEGSSLYSGVPSRFSGSGSGTDFTLTISSLQPEDFATYYCQQGGSYSSPPTFGQGTKVEIKR
notes: also called 4-1 anti-hDR5
For B1, the Kd in test [1] was found to be 120 nM.

B2: 4-5 (antibody, V domains shown)
VH: not shown
VL: DIQMTQSPSSLSASVGDRVTITCRASQNVGRPVAWYQQKPGKAPKLLIYGGSSLYSGVPSRFSGSGSGTDFTLTISSLQPEDFATYYCQQYGSFGTPPTFGQGTKVEIKR
As for B2, in [1], the Kd was 150 nM.

B3: bH1 Fab (Fab, V domains shown)
VH: not shown
VL: DIQMTQSPSSLSASVGDRVTITCRASQDIPRSISGYVAWYQQKPGKAPKLLIYWGSYLYSGVPSRFSGSGSGTDFTLTISSLQPEDFATYYCQQHYTTPPTFGQGTKVEIKR
notes: also called bispecific bH1 Fab
On to B3, for which the IC50 in [2] is 2.1 nM. Further, binding in test [3] was characterised by a dissociation constant (Kd) of 59 nM.

B4: bH4 (antibody, V domains shown)
VH: not shown
VL: DIQMTQSPSSLSASVGDRVTITCRASQDIRSGSVAWYQQKPGKAPKLLIYWGSYLYSGVPSRFSGSGSGTDFTLTISSLQPEDFATYYCQQHYTTPPTFGQGTKVEIKR
In test [4], B4 returned a Kd of 11 nM.

B5: H3 Fab (Fab, V domains shown)
VH: not shown
VL: B4 VL with R30G, S31L, G52A
notes: also called bH3 Fab
Take B5: the Kd in test [5] amounted to 3930 nM; in test [3], 8 nM.

B6: bD2 IgG (antibody, V domains shown)
VH: not shown
VL: DIQMTQSPSSLSASVGDRVTITCRASQNIRNGGGLAWYQQKPGKAPKLLIYSASFLYSGVPSRFSGSGSGTDFTLTISSLQPEDFATYYCQQHYTTPPTFGQGTKVEIKR
notes: not shown: rest of the human IgG heavy chain constant region
Turning to B6, the binding result in [6] is recorded as “no binding (tested: 100 nM (text))”; in [7] it was “no binding (tested: 100 nM (text))”; in test [8], “no binding (tested: 100 nM (text))”; in test [9] it was “no binding (tested: 100 or 500 nM (text))”; in test [10] it was “no binding (tested: 100 or 500 nM (text))”; in [11] it was “no binding (tested: 100 or 500 nM (text))”. Further, the binding result in test [12] and in test [13] was “no binding (tested: 100 or 500 nM (text))” throughout.

B7: 3-4 (scFv, V domains shown, not shown: large carriers; small tags and cut ends)
VH: not shown
VL: DIQMTQSPSSLSASVGDRVTITCRASQEVYSYVAWYQQKPGKAPKLLIYPASSLYSGVPSRFSGSGSGTDFTLTISSLQPEDFATYYCQQGFWIGPPTFGQGTKVEIK
notes: also called c3-4
Molecule B7 came in with an OD450 without competitor in [14] of 0.05. The molecule also displayed a 50% inhibitory concentration (IC50) in test [15] of 32 nM.

B8: 3-7 (antibody, V domains shown)
VH: not shown
VL: B7 VL with E28Y, V29I, Y30W, S31R, P50W, A51G, F92L, I94Y, G95S
notes: also called 3-7 hIgG; 3-7 anti-hVEGF
On to B8, for which, in test [5], the Kd was 3 nM and 7 nM; the koff is 0.0025 s⁻¹ and 0.0042 s⁻¹; the kon was 800000 M⁻¹ s⁻¹ and 580000 M⁻¹ s⁻¹. For the same molecule, in [15], the IC50 was 16 nM.

B9: D1 hIgG (antibody, V domains shown)
VH: not shown
VL: DIQMTQSPSSLSASVGDRVTITCRASQNVSKHVAWYQQKPGKAPKLLIYWGSYLYSGVPSRFSGSGSGTDFTLTISSLQPEDFATYYCQQSYSGPPTFGQGTKVEIKR
notes: also called bD1 IgG; D1 (anti-hDR5/Her2); not shown: rest of the human IgG heavy chain constant region
For B9, the binding result is given as “no binding (tested: 100 nM (text))” in [6]; “no binding (tested: 100 nM (text))” in test [7]; “no binding (tested: 100 nM (text))” in [8]; “no binding (tested: 100 or 500 nM (text))” in [9]; “no binding (tested: 100 or 500 nM (text))” in test [10]; “no binding (tested: 100 or 500 nM (text))” in test [11]. Further, the binding result in [12] and in test [13] was “no binding (tested: 100 or 500 nM (text))” each time.

The Kd is a measure of binding affinity in units of concentration. Lower therefore signals tighter binding. What is called IC50 is the concentration needed to halve the response being measured. A higher IC50 goes with lower potency. What is called koff is the first-order rate constant of dissociation. For orientation: kon means a measure of how fast the partners come together.
